Results on 17 molecules are retold here after patent US20210087291A1 (Hoffmann-La Roche, published 2021).

Substitutions are numbered along the chain they refer to.

The chains are these.
B1: aTim3 0018MutNQ (antibody, V domains shown)
VH: QVTLKESGPGILQPSQTLSLTCSFSGFSLSTSGMSVGWIRQPSGKGLEWLAHIWLNDDVFFNPALKRRLTISKDTSNNQVFLQIASVVTADTATYYCVRANGYLYALDYWGQGISVTVSS
VL: QIVLTQSPAIMSASPGQKVTITCSASSSVQYTQWYQQKLGSSPKLWIYDAFKLAPGVPARFSGSGTGTSYSLTISSMEAEDAASYFCHQWSSYPWTFGGGTKLEIK
notes: also called aT3m3 0018MutNQ
B2: aTim3 0016 MutNQ (antibody, V domains shown)
VH: B1 VH with S19R, R67S, I114T
VL: B1 VL
B3: aTim3 0018MutNS (antibody, V domains shown)
VH: B1 VH
VL: B1 VL with Q30S
notes: also called aT3m3 0018MutNS
B4: aTim3 0016MutNS (antibody, V domains shown)
VH: B1 VH with S19R, R67S, I114T
VL: B1 VL with Q30S
B5: 21A5 IgG (antibody, V domains shown)
VH: not shown
VL: QAVVTQEPSLTVSPGGTVTLTCGSSTGAVTTSNYANWVQEKPGQAFRGLIGGTNKRAPGTPARFSGSLLGGKAALTLSGAQPEDEAEYYCALWYSNLWVFGGGTKLTVL
notes: human IgG1
B6: 16D5 IgG (antibody, V domains shown)
VH: not shown
VL: B5 VL
notes: human IgG1
B7: 21G8 IgG (antibody, V domains shown)
VH: not shown
VL: B5 VL
notes: human IgG1
B8: 5D9 Fab (Fab, V domains shown)
VH: QVQLVQSGAEVKKPGASVKVSCKASGYTFTSYYMHWVRQAPGQGLEWMGIINPSGGSTSYAQKFQGRVTMTRDTSTSTVYMELSSLRSEDTAVYYCARSYIDMDYWGQGTLVTVSS
VL: EIVLTQSPGTLSLSPGERATLSCRASQSVSSSYLAWYQQKPGQAPRLLIYGASSRATGIPDRFSGSGSGTDFTLTISRLEPEDFAVYYCQQDNWSPTFGQGTKVEIK
B9: 6B6 Fab (Fab, V domains shown)
VH: B8 VH with I101V
VL: B8 VL with N93I
B10: 11F8 Fab (Fab, V domains shown)
VH: QVQLVQSGAEVKKPGSSVKVSCKASGGTFSSYAISWVRQAPGQGLEWMGGIIPIFGTANYAQKFQGRVTITADKSTSTAYMELSSLRSEDTAVYYCARAVFYRAWYSFDYWGQGTTVTVSS
VL: DIQMTQSPSTLSASVGDRVTITCRASQSISSWLAWYQQKPGKAPKLLIYDASSLESGVPSRFSGSGSGTEFTLTISSLQPDDFATYYCQQYTSPPPTFGQGTKVEIK
B11: 15B6 Fab (Fab, V domains shown)
VH: QVQLVQSGAEVKKPGASVKVSCKASGYTFTSYYMHWVRQAPGQGLEWMGIINPSGGSTSYAQKFQGRVTMTRDTSTSTVYMELSSLRSEDTAVYYCARNYYIGIVPFDYWGQGTLVTVSS
VL: B5 VL
B12: 16F12 Fab (Fab, V domains shown)
VH: B11 VH with Y100F, Y101T, I102V, G103L, I104R
VL: B5 VL
B13: 16D5 Fab (Fab, V domains shown)
VH: not shown
VL: B5 VL
B14: 21A5 Fab (Fab, V domains shown)
VH: not shown
VL: B5 VL
B15: 21G8 Fab (Fab, V domains shown)
VH: not shown
VL: B5 VL
B16: 16F12 IgG (antibody, V domains shown)
VH: B11 VH with Y100F, Y101T, I102V, G103L, I104R
VL: B5 VL
notes: human IgG1
B17: 15B6 IgG (antibody, V domains shown)
VH: B11 VH
VL: B5 VL
notes: human IgG1

Sequence of human FolR2 on transiently transfected HEK cells (P14207 17-230 limits assumed): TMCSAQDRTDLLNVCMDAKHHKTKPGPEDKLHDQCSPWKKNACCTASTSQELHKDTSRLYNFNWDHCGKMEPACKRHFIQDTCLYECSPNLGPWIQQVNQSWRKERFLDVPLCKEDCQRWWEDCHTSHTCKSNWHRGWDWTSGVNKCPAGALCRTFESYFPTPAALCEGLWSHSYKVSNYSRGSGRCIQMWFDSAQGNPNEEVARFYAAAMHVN

The first test addresses T1, cynomolgus Tim3 (ELISA) (cynomolgus, UniProt A0A2K5U3G7 22-193).
T1 construct: also called Biochem Cyno; cyno TIM3
T1 sequence: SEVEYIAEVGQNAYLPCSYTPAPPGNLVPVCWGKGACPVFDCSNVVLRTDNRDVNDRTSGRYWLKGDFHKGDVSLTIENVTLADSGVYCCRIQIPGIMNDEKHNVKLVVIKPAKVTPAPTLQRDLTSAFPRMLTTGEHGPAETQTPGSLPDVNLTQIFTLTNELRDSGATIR
The test can be described thus: ELISA, cyno Tim3; EC50 relative to the sample's max value.
B1 had an EC50 of 13.2 ng/mL.

B2: a half-maximal response (EC50) required 8.3 ng/mL.

Consider B3, for which the EC50 worked out at 11.9 ng/mL.

Turning to B4, the midpoint of the response, the EC50, lay at 9.7 ng/mL.

A further test concerns the target T2, human TIM-3 on cells (human, UniProt Q8TDQ0 22-301).
T2 construct: also called CHO-Tim3; rec CHOK1 cells expressing huTIM-3
The test can be described thus: cell ELISA, CHO-Tim3; EC50 relative to the sample's max value.
B1 gave a half-maximal effective concentration (EC50) of 13.4 ng/mL.

In the case of B2, the midpoint of the response, the EC50, lay at 6.8 ng/mL.

Take B3: the midpoint of the response, the EC50, lay at 11.2 ng/mL.

B4: the 50% effective concentration (EC50) was 9.1 ng/mL.

Another test addresses human FolR2 on transiently transfected HEK cells (human, UniProt P14207 17-230). Description: flow cytometry on HEK cells transiently transfected with human FolR2, anti-human secondary antibody; concentration not given.
Consider B5, for which the binding result is listed as “no binding”.

Regarding B6, the binding result is given as “no binding”.

In the case of B7, the binding result is recorded as “binds”.

A further test concerns the target T3, Tim3-ECD-His-Biotin (human, UniProt Q8TDQ0 22-202).
T3 construct: also called human Tim3 (ELISA); Biochem Human
The test can be described thus: ELISA, human Tim3.
Molecule B1 returned an inflexion point of 10.8 ng/mL.

With B2, the inflexion point came to 5.7 ng/mL.

The molecule B3 returned an inflexion point of 6.5 ng/mL.

B4 registered an inflexion point of 6.5 ng/mL.

A further test deals with T1, cynomolgus Tim3 (ELISA). Description: ELISA, cyno Tim3.
Consider B1, for which the inflexion point was 10.8 ng/mL.

As for B2, the inflexion point came to 5.7 ng/mL.

B3 displayed an inflexion point of 6.5 ng/mL.

In turn, B4 registered an inflexion point of 5.5 ng/mL.

In a further test the target is T2, human TIM-3 on cells. Description: cell ELISA, CHO-Tim3.
For B1, the inflexion point was found to be 12.8 ng/mL.

B2: the inflexion point was found to be 5.4 ng/mL.

Take B3: the inflexion point amounted to 11.1 ng/mL.

B4 yielded an inflexion point of 8.5 ng/mL.

The target in a further test is T4, murine FolR1 ECD-AcTev-Fcknob-Avitag + Fc hole, biotinylated monomeric Fc fusion (murine, UniProt P0DOX5 223-449 = IgG part).
T4 construct: also called muFolR1; murine FolR1-Fc
Description: SPR ProteOn, Fab analyte.
Description: Immobilization of antigens (ligand): Recombinant antigens were diluted with PBST (10 mM phosphate, 150 mM sodium chloride pH 7.4, 0.005% Tween 20) to 10 μg/ml, then injected at 30 μl/minute in vertical orientation. Injection of analytes: For ‘one-shot kinetics’ measurements, injection direction was changed to horizontal orientation, two-fold dilution series of purified Fab (varying concentration ranges) were injected simultaneously along separate channels 1-5, with association times of 150 or 200 s, and dissociation times of 200 or 600 s, respectively. Buffer (PBST) was injected along the sixth channel to provide an “in-line” blank for referencing. Association rate constants (kₒₙ) and dissociation rate constants (koff) were calculated using a simple one-to-one Langmuir binding model in ProteOn Manager v3.1 software by simultaneously fitting the association and dissociation sensorgrams. The equilibrium dissociation constant (KD) was calculated as the ratio koff/kₒₙ.
As to B8, the binding result is reported as “no binding”.

On to B9, for which the binding result was “no binding”.

As to B10, the Kd turned out to be 1200 nM.

For another test, the target named is T3, Tim3-ECD-His-Biotin. Description: ELISA, human Tim3; EC50 relative to the sample's max value.
As for B1, the EC50 was 12 ng/mL.

In turn, B2 displayed a half-maximal effective concentration (EC50) of 7.6 ng/mL.

B3 displayed an EC50 of 10.3 ng/mL.

With B4, the EC50 stood at 8.5 ng/mL.

A further test concerns the target T5, human FolR1 ECD-AcTev-Fcknob-Avi tag + Fc hole, biotinylated monomeric Fc fusion (human, UniProt P0DOX5 223-449 = IgG part).
T5 construct: also called huFolR1; huFolR1-Fc
Description: SPR ProteOn, Fab analyte.
Description: (§1) Immobilization of antigens (ligand): Recombinant antigens were diluted with PBST (10 mM phosphate, 150 mM sodium chloride pH 7.4, 0.005% Tween 20) to 10 μg/ml, then injected at 30 μl/minute in vertical orientation.
(§2) Injection of analytes: For ‘one-shot kinetics’ measurements, injection direction was changed to horizontal orientation, two-fold dilution series of purified Fab (varying concentration ranges) were injected simultaneously along separate channels 1-5, with association times of 200 s, and dissociation times of 600 s. Buffer (PBST) was injected along the sixth channel to provide an “in-line” blank for referencing. Association rate constants (kₒₙ) and dissociation rate constants (koff) were calculated using a simple one-to-one Langmuir binding model in ProteOn Manager v3.1 software by simultaneously fitting the association and dissociation sensorgrams. The equilibrium dissociation constant (KD) was calculated as the ratio koff/kₒₙ.
As for B11, the dissociation constant (Kd) worked out at 19.1 nM.

Regarding B12, the dissociation constant (Kd) is 68 nM.

The target in another test is T6, cynomolgus FolR1 ECD-AcTev-Fcknob-Avi tag + Fc hole, biotinylated monomeric Fc fusion (cynomolgus, UniProt P0DOX5 223-449 = IgG part).
T6 construct: also called cyFolR1; cyno FolR1-Fc
The test can be described thus: SPR ProteOn, Fab analyte.
Description: as §1, §2
As for B11, the Kd was 13.9 nM.

Turning to B12, the Kd was determined as 90.9 nM.

Another test addresses T7, human FolR3 ECD-AcTev-Fcknob-Avi tag + Fc hole, biotinylated monomeric Fc fusion (human, UniProt P0DOX5 223-449 = IgG part).
T7 construct: also called huFolR3; FolR3-Fc
Description: SPR ProteOn, Fab analyte.
Description: as §1, §2
With B11, the binding result is given as “no binding”.

In the case of B13, the binding result is “no binding”.

As to B12, the binding result is on record as “no binding”.

The next test has as its target T8, human FolR2 ECD-AcTev-Fcknob-Avi tag + Fc hole, biotinylated monomeric Fc fusion (human, UniProt P0DOX5 223-449 = IgG part).
T8 construct: also called huFolR2; FolR2-Fc
The test can be described thus: SPR ProteOn, Fab analyte.
Description: as §1, §2
For B11, the binding result was “no binding”.

B14: the binding result is reported as “no binding”.

In the case of B13, the binding result is recorded as “no binding”.

With B12, the binding result was “no binding”.

The next test addresses T4, murine FolR1 ECD-AcTev-Fcknob-Avitag + …. Description: SPR ProteOn, Fab analyte. The source holds these as a separate data set.
Description: as §1, §2
Consider B11, for which the binding result is “no binding”.

In the case of B14, the binding result is recorded as “no binding”.

For the molecule B13, the binding result is on record as “no binding”.

For the molecule B15, the binding result is on record as “no binding”.

Regarding B12, the binding result is reported as “no binding”.

A further test has as its target T7, human FolR3 ECD-AcTev-Fcknob-Avi tag + …. Description: SPR, IgG single injection.
Consider B6, for which the binding result was “no binding (tested: 500 nM)”.

On to B16, for which the binding result is “no binding (tested: 500 nM)”.

On to B17, for which the binding result was “no binding (tested: 500 nM)”.

The target of another test is T8, human FolR2 ECD-AcTev-Fcknob-Avi tag + …. The test can be described thus: SPR, IgG single injection.
As for B5, the binding result is reported as “no binding (tested: 500 nM)”.

B6: the binding result was “no binding (tested: 500 nM)”.

For the molecule B16, the binding result is recorded as “no binding (tested: 500 nM)”.

Turning to B17, the binding result was “no binding (tested: 500 nM)”.

Another test concerns the target T4, murine FolR1 ECD-AcTev-Fcknob-Avitag + …. The test can be described thus: SPR, IgG single injection.
Consider B5, for which the binding result was “no binding (tested: 500 nM)”.

With B6, the binding result is listed as “no binding (tested: 500 nM)”.

For the molecule B16, the binding result was “no binding (tested: 500 nM)”.

Turning to B17, the binding result was “no binding (tested: 500 nM)”.

Take B7: the binding result is recorded as “no binding (tested: 500 nM)”.
